# Reference: patent publication US12630600B2 (MEDIMMUNE LIMITED, priority 2022, dated 2026)
# Starred links: 1 amine or outer side, 2 acyl side, 3 side chain; linkers in the order of their positions; H or OH if unused. Non-standard residues stand in square brackets, D forms with d. Groups on a side chain read outwards from the residue. Primed or numbered codes have the meaning given here. No end group written: not given here. *: point of attachment. PEG12 = NCCOCCOCCOCCOCCOCCOCCOCCOCCOCCOCCOCCOCCC(=O)O; C18 diacid = O=C(O)CCCCCCCCCCCCCCCCC(=O)*; Dip = N[C@H](C(=O)O)C(c1ccccc1)c1ccccc1; Heptadecanoyl = CCCCCCCCCCCCCCCCC(=O)*; γGlu = O=C(O)[C@H](CCC(=O)[*:2])N[*:1]; Stearoyl = CCCCCCCCCCCCCCCCCC(=O)*; Palmitoyl = CCCCCCCCCCCCCCCC(=O)*; αMeF = C[C@](N)(Cc1ccccc1)C(=O)O; Myristoyl = CCCCCCCCCCCCCC(=O)*; (PEG)2 = polyethylene glycol 2; PEG2′ = polyethylene glycol 2; PEG4′ = polyethylene glycol; Dodecyl = CCCCCCCCCCCC*; PEG2 = NCCOCCOCCC(=O)O; AEEA = NCCOCCOCC(=O)O; Aib = CC(C)(N)C(=O)O
# B1: Peptide 58 (peptide)
# peptide: HSQGS[αMeF]TSDVSK[Dip]LDSK([PEG12-γGlu-γGlu-Stearoyl])AAQD[αMeF]VE[Aib]IINT-NH2
# modifications: N-terminus assumed
# SMILES: CCCCCCCCCCCCCCCCCC(=O)N[C@@H](CCC(=O)N[C@@H](CCC(=O)NCCOCCOCCOCCOCCOCCOCCOCCOCCOCCOCCOCCOCCC(=O)NCCCC[C@H](NC(=O)[C@H](CO)NC(=O)[C@H](CC(=O)O)NC(=O)[C@H](CC(C)C)NC(=O)[C@@H](NC(=O)[C@H](CCCCN)NC(=O)[C@H](CO)NC(=O)[C@@H](NC(=O)[C@H](CC(=O)O)NC(=O)[C@H](CO)NC(=O)[C@@H](NC(=O)[C@](C)(Cc1ccccc1)NC(=O)[C@H](CO)NC(=O)CNC(=O)[C@H](CCC(N)=O)NC(=O)[C@H](CO)NC(=O)[C@@H](N)Cc1c[nH]cn1)[C@@H](C)O)C(C)C)C(c1ccccc1)c1ccccc1)C(=O)N[C@@H](C)C(=O)N[C@@H](C)C(=O)N[C@@H](CCC(N)=O)C(=O)N[C@@H](CC(=O)O)C(=O)N[C@@](C)(Cc1ccccc1)C(=O)N[C@H](C(=O)N[C@@H](CCC(=O)O)C(=O)NC(C)(C)C(=O)N[C@H](C(=O)N[C@H](C(=O)N[C@@H](CC(N)=O)C(=O)N[C@H](C(N)=O)[C@@H](C)O)[C@@H](C)CC)[C@@H](C)CC)C(C)C)C(=O)O)C(=O)O
# B2: Peptide 109 (peptide)
# peptide: HSQGS[αMeF]TSDVSK(Ac)[Aib]LDSK([AEEA-AEEA-γGlu-C18 diacid])AAQD[αMeF]VQ[Aib]IAN-NH2
# modifications: N-terminus assumed
# SMILES: CC[C@H](C)[C@H](NC(=O)C(C)(C)NC(=O)[C@H](CCC(N)=O)NC(=O)[C@@H](NC(=O)[C@](C)(Cc1ccccc1)NC(=O)[C@H](CC(=O)O)NC(=O)[C@H](CCC(N)=O)NC(=O)[C@H](C)NC(=O)[C@H](C)NC(=O)[C@H](CCCCNC(=O)COCCOCCNC(=O)COCCOCCNC(=O)CC[C@H](NC(=O)CCCCCCCCCCCCCCCCC(=O)O)C(=O)O)NC(=O)[C@H](CO)NC(=O)[C@H](CC(=O)O)NC(=O)[C@H](CC(C)C)NC(=O)C(C)(C)NC(=O)[C@H](CCCCNC(C)=O)NC(=O)[C@H](CO)NC(=O)[C@@H](NC(=O)[C@H](CC(=O)O)NC(=O)[C@H](CO)NC(=O)[C@@H](NC(=O)[C@](C)(Cc1ccccc1)NC(=O)[C@H](CO)NC(=O)CNC(=O)[C@H](CCC(N)=O)NC(=O)[C@H](CO)NC(=O)[C@@H](N)Cc1c[nH]cn1)[C@@H](C)O)C(C)C)C(C)C)C(=O)N[C@@H](C)C(=O)N[C@@H](CC(N)=O)C(N)=O
# B3: Peptide 12 (peptide)
# peptide: H[Aib]HGS[αMeF]TSDVSK[αMeF]LDSK([AEEA-AEEA-γGlu-C18 diacid])AARDFVQ[Aib]IANT-NH2
# modifications: N-terminus assumed
# SMILES: CC[C@H](C)[C@H](NC(=O)C(C)(C)NC(=O)[C@H](CCC(N)=O)NC(=O)[C@@H](NC(=O)[C@H](Cc1ccccc1)NC(=O)[C@H](CC(=O)O)NC(=O)[C@H](CCCNC(=N)N)NC(=O)[C@H](C)NC(=O)[C@H](C)NC(=O)[C@H](CCCCNC(=O)COCCOCCNC(=O)COCCOCCNC(=O)CC[C@H](NC(=O)CCCCCCCCCCCCCCCCC(=O)O)C(=O)O)NC(=O)[C@H](CO)NC(=O)[C@H](CC(=O)O)NC(=O)[C@H](CC(C)C)NC(=O)[C@](C)(Cc1ccccc1)NC(=O)[C@H](CCCCN)NC(=O)[C@H](CO)NC(=O)[C@@H](NC(=O)[C@H](CC(=O)O)NC(=O)[C@H](CO)NC(=O)[C@@H](NC(=O)[C@](C)(Cc1ccccc1)NC(=O)[C@H](CO)NC(=O)CNC(=O)[C@H](Cc1c[nH]cn1)NC(=O)C(C)(C)NC(=O)[C@@H](N)Cc1c[nH]cn1)[C@@H](C)O)C(C)C)C(C)C)C(=O)N[C@@H](C)C(=O)N[C@@H](CC(N)=O)C(=O)N[C@H](C(N)=O)[C@@H](C)O
# Target: human glucagon receptor (human, UniProt P47871)
# Assay: cell-based or functional assay
row,Binder,"cAMP production, hGluc-R EC50 (pM)"
1,HSQGS[αMeF]TSDVSK[Aib]LDSK([(PEG)2-(PEG)2-γGlu-γGlu-Stearoyl])AAQD[αMeF]VQ[Aib]IAN-NH2 [Peptide 100],40.5
2,HSQGS[αMeF]TSDVSK(Ac)[Aib]LDSK([(PEG)2-(PEG)2-γGlu-γGlu-Stearoyl])AAQD[αMeF]VQ[Aib]IAN-NH2 [Peptide 110],48.5
3,HSQGS[αMeF]TSDVSK[αMeF]LDSK([(PEG)2-(PEG)2-γGlu-γGlu-Heptadecanoyl])AAQD[αMeF]VQ[Aib]IAN-NH2 [Peptide 88],6.47
4,HSQGS[αMeF]TSDVSK[αMeF]LDSK([PEG2′-PEG2′-γGlu-γGlu-Palmitoyl])AAQD[αMeF]VQ[Aib]LEAGG-NH2 [Peptide 79],10.7
5,H[Aib]QGS[αMeF]TSDVSK[αMeF]LDSK([PEG4′-γGlu-γGlu-Palmitoyl])AAQD[αMeF]VE[Aib]LEAGG-NH2 [Peptide 72],73.7
6,HSQGS[αMeF]TSDVSK[αMeF]LDSK([(PEG)2-(PEG)2-γGlu-γGlu-Palmitoyl])AAQD[αMeF]VQ[Aib]IAN-NH2 [Peptide 87],8.46
7,HSQGS[αMeF]TSDVSK[Dip]LDSK([PEG2′-PEG2′-γGlu-γGlu-Palmitoyl])AAQD[αMeF]VE[Aib]IINT-NH2 [Peptide 64],3.06
8,HSQGS[αMeF]TSDVSK[Dip]LDSK([(PEG)2-(PEG)2-γGlu-γGlu-Myristoyl])AAQD[αMeF]VE[Aib]IINT-NH2 [Peptide 63],2.49
9,HSQGS[αMeF]TSDVSK[αMeF]LDSK([PEG2′-PEG2′-γGlu-γGlu-Palmitoyl])AAQD[αMeF]VQ[Aib]IAN-NH2 (not fully specified) [Peptide 89],15.3
10,H[Aib]QGS[αMeF]TSDVSK[Dip]LDSK([PEG2′-PEG2′-γGlu-Palmitoyl])AAQD[αMeF]VQ[Aib]IAN-NH2 [Peptide 67],9.49
11,HSQGS[αMeF]TSDVSK[Dip]LDSK([(PEG)2-(PEG)2-γGlu-γGlu-Dodecyl])AAQD[αMeF]VE[Aib]IINT-NH2 [Peptide 62],15.2
12,HSQGS[αMeF]TSDVSK[Dip]LDSK([γGlu-(PEG)2-γGlu-(PEG)2-Stearoyl])AAQD[αMeF]VE[Aib]IINT-NH2 [Peptide 60],21.1
13,B1,11.3
14,HSQGS[αMeF]TSDVSK[Dip]LDSK([(PEG)2-γGlu-(PEG)2-γGlu-Stearoyl])AAQD[αMeF]VE[Aib]IINT-NH2 [Peptide 61],9.55
15,H[Aib]HGS[αMeF]TSDVSK[αMeF]LDSK([AEEA-AEEA-γGlu-C18 diacid])AAQDFVQ[Aib]IANT-NH2 [Peptide 11],118
16,B2,> 26800
17,HSQGS[αMeF]TSDVSKILDSKAAQD[αMeF]VQ[Aib]IAN-NH2 (not fully specified (residue 17)) [Peptide 111],2.09
18,B3,47.7
19,HSQGS[αMeF]TSDVSK[Aib]LDSK([(PEG)2-(PEG)2-γGlu-γGlu-Palmitoyl])AAQD[αMeF]VQ[Aib]IIE-NH2 [Peptide 99],33.2
20,HSQGS[αMeF]TSDVSK[αMeF]LDSKAAQD[αMeF]VQ[Aib]LEAGG-NH2 (not fully specified (residue 17)) [Peptide 80],9.18
21,HSQGS[αMeF]TSDVSK[Dip]LDSK([PEG2-PEG2-γGlu-γGlu-C18 diacid])AAQD[αMeF]VE[Aib]IINT-NH2 [Peptide 65],2060
22,HSQGS[αMeF]TSDVSK[Dip]LDSK([γGlu-γGlu-(PEG)2-(PEG)2-Stearoyl])AAQD[αMeF]VE[Aib]IINT-NH2 [Peptide 59],28.4

# Target: human GLP-1 receptor (human, UniProt P43220)
# Assay: cell-based or functional assay
row,Binder,"cAMP production, hGLP-1R EC50 (pM)"
1,HSQGS[αMeF]TSDVSK[Aib]LDSK([(PEG)2-(PEG)2-γGlu-γGlu-Stearoyl])AAQD[αMeF]VQ[Aib]IAN-NH2 [Peptide 100],0.258
2,HSQGS[αMeF]TSDVSK(Ac)[Aib]LDSK([(PEG)2-(PEG)2-γGlu-γGlu-Stearoyl])AAQD[αMeF]VQ[Aib]IAN-NH2 [Peptide 110],0.627
3,HSQGS[αMeF]TSDVSK[αMeF]LDSK([(PEG)2-(PEG)2-γGlu-γGlu-Heptadecanoyl])AAQD[αMeF]VQ[Aib]IAN-NH2 [Peptide 88],1.04
4,HSQGS[αMeF]TSDVSK[αMeF]LDSK([PEG2′-PEG2′-γGlu-γGlu-Palmitoyl])AAQD[αMeF]VQ[Aib]LEAGG-NH2 [Peptide 79],1.73
5,H[Aib]QGS[αMeF]TSDVSK[αMeF]LDSK([PEG4′-γGlu-γGlu-Palmitoyl])AAQD[αMeF]VE[Aib]LEAGG-NH2 [Peptide 72],3.42
6,HSQGS[αMeF]TSDVSK[αMeF]LDSK([(PEG)2-(PEG)2-γGlu-γGlu-Palmitoyl])AAQD[αMeF]VQ[Aib]IAN-NH2 [Peptide 87],1.29
7,HSQGS[αMeF]TSDVSK[Dip]LDSK([PEG2′-PEG2′-γGlu-γGlu-Palmitoyl])AAQD[αMeF]VE[Aib]IINT-NH2 [Peptide 64],2.57
8,HSQGS[αMeF]TSDVSK[Dip]LDSK([(PEG)2-(PEG)2-γGlu-γGlu-Myristoyl])AAQD[αMeF]VE[Aib]IINT-NH2 [Peptide 63],3.14
9,HSQGS[αMeF]TSDVSK[αMeF]LDSK([PEG2′-PEG2′-γGlu-γGlu-Palmitoyl])AAQD[αMeF]VQ[Aib]IAN-NH2 (not fully specified) [Peptide 89],3.77
10,H[Aib]QGS[αMeF]TSDVSK[Dip]LDSK([PEG2′-PEG2′-γGlu-Palmitoyl])AAQD[αMeF]VQ[Aib]IAN-NH2 [Peptide 67],2.43
11,HSQGS[αMeF]TSDVSK[Dip]LDSK([(PEG)2-(PEG)2-γGlu-γGlu-Dodecyl])AAQD[αMeF]VE[Aib]IINT-NH2 [Peptide 62],10.1
12,HSQGS[αMeF]TSDVSK[Dip]LDSK([γGlu-(PEG)2-γGlu-(PEG)2-Stearoyl])AAQD[αMeF]VE[Aib]IINT-NH2 [Peptide 60],5.16
13,B1,3.9
14,HSQGS[αMeF]TSDVSK[Dip]LDSK([(PEG)2-γGlu-(PEG)2-γGlu-Stearoyl])AAQD[αMeF]VE[Aib]IINT-NH2 [Peptide 61],4.12
15,H[Aib]HGS[αMeF]TSDVSK[αMeF]LDSK([AEEA-AEEA-γGlu-C18 diacid])AAQDFVQ[Aib]IANT-NH2 [Peptide 11],157
16,B2,698
17,HSQGS[αMeF]TSDVSKILDSKAAQD[αMeF]VQ[Aib]IAN-NH2 (not fully specified (residue 17)) [Peptide 111],1.92
18,B3,14.5
19,HSQGS[αMeF]TSDVSK[Aib]LDSK([(PEG)2-(PEG)2-γGlu-γGlu-Palmitoyl])AAQD[αMeF]VQ[Aib]IIE-NH2 [Peptide 99],2.21
20,HSQGS[αMeF]TSDVSK[αMeF]LDSKAAQD[αMeF]VQ[Aib]LEAGG-NH2 (not fully specified (residue 17)) [Peptide 80],1.03
21,HSQGS[αMeF]TSDVSK[Dip]LDSK([PEG2-PEG2-γGlu-γGlu-C18 diacid])AAQD[αMeF]VE[Aib]IINT-NH2 [Peptide 65],1230
22,HSQGS[αMeF]TSDVSK[Dip]LDSK([γGlu-γGlu-(PEG)2-(PEG)2-Stearoyl])AAQD[αMeF]VE[Aib]IINT-NH2 [Peptide 59],6.18
